For 1 molecule, EC50 results are on record in US20150274808A1 (Biogen, published 2015).

The target of this assay is T1, human antigen that binds to mAb1 (human LINGO-1) (human, UniProt Q96FE5 42-538, limits assumed).
T1 sequence (looked up): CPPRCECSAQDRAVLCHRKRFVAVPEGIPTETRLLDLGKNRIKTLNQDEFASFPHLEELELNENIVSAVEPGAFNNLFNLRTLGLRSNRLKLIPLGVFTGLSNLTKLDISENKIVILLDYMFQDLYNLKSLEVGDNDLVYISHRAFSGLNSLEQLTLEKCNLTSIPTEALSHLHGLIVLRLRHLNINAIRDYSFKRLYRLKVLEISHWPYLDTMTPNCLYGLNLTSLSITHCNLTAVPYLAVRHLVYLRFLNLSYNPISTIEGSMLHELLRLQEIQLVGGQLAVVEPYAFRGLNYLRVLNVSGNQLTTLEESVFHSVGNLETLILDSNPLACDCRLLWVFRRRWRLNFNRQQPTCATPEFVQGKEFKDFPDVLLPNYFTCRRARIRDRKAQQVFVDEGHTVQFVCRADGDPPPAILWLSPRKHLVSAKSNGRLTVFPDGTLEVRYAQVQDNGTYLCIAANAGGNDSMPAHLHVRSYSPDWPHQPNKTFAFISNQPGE
The experiment in a line: direct binding ELISA on plate-coated human antigen; preparation with 39% trisulfide at LC5-HC5. As for the experimental part: Costar 96-well easy wash plates were coated overnight with 5 μg/mL human antigen that binds to mAb1 (50 μL/well), in 50 mM sodium carbonate (pH 9.5) at 4° C. Plates were washed 3 times with 350 μL of PBS using a plate washer and blocked with 1% BSA, 0.1% ovalbumin, and 0.1% non-fat dry milk in Hank's balanced salt buffer containing 25 mM HEPES (pH 7.0) for 1 hour at room temperature. Plates were then washed again, and incubated for 1 h with a 3-fold dilution series set up for each test compound (50 μL/well, 8 dilutions) starting at 10 μg/mL and all in 0.1% BSA, 0.1% ovalbumin, and 0.1% non-fat dry milk in Hank's balanced salt buffer containing 25 mM HEPES (pH 7.0), and again washed. Bound mAb1 was detected using AP-anti-human Fab. […] Plates were read at 405 nm on a Molecular Devices plate reader. EC₅₀ values for binding were calculated from the titration curve using prism software. The function of mAb2 was assessed as for mAb1 except that 96 well microplates were coated overnight at 4° C. with 1 μg/mL (in 15 mM Na₂CO₃, 35 mM NaHCO₃, pH 9.6) of a human antigen that binds to mAb2. […] Binding was determined using a horseradish peroxidase-conjugated goat anti-human polyclonal antibody (Jackson ImmunoResearch, West Grove, Pa.) followed by measurement of horse radish peroxidase activity using the substrate tetramethylbenzidine.
In general terms: ELISA stands for enzyme-linked immunosorbent assay.

B1: anti-LINGO-1 antibody Li81 (antibody, V domains shown)
VH: EVQLLESGGGLVQPGGSLRLSCAASGFTFSAYEMKWVRQAPGKGLEWVSVIGPSGGFTFYADSVKGRFTISRDNSKNTLYLQMNSLRAEDTAVYYCATEGDNDAFDIWGQGTTVTVSS
VL: DIQMTQSPATLSLSPGERATLSCRASQSVSSYLAWYQQKPGQAPRLLIYDASNRATGIPARFSGSGSGTDFTLTISSLEPEDFAVYYCQQRSNWPMYTFGQGTKLEIK
notes: Tested as an aglycosyl human IgG1 made in CHO cells; They differ only in the share of trisulfide at the light-heavy (LC5-HC5) interchain bond; also called mAb1; Mab1
Consider B1, for which the concentration giving a half-maximal response (EC50) – broadly, the midpoint of the concentration-response curve – was 0.02 nM.
